{
  "source": "patent US20250304973A1",
  "about": "“HIGH-AFFINITY THROMBIN APTAMERS AND METHODS OF USE” (Ayass Bioscience LLC, priority 2024, published 2025)",
  "origin": "cited, not measured here",
  "conditions": "reversal of dabigatran",
  "data": [
    {"molecule": "Idarucizumab: a monoclonal antibody that binds to dabigatran and neutralizes its anticoagulant properties (antibody, chains of the INN, looked up, V domains shown, Fab) VH: QVQLQESGPGLVKPSETLSLTCTVSGFSLTSYIVDWIRQPPGKGLEWIGVIWAGGSTGYNSALRSRVSITKDTSKNQFSLKLSSVTAADTAVYYCASAAYYSYYNYDGFAYWGQGTLVTVSS VL: DVVMTQSPLSLPVTLGQPASISCKSSQSLLYTDGKTYLYWFLQRPGQSPRRLIYLVSKLDSGVPDRFSGSGSGTDFTLKISRVEAEDVGVYYCLQSTHFPHTFGGGTKVEIK", "values": [
      {"measurement": "time to reversal of anticoagulant effect", "value": "this in ~2-4 hours"}
    ]}
  ]
}
